What is called Kd is the free concentration of one partner at which half of the binding sites on the other are occupied at equilibrium, for simple one-to-one binding. Read a high Kd as lower affinity. Broadly, the stoichiometry N is the number of molecules, sites or subunits per partner or assembly.

Data set [1] concerns Nucleocapsid (N) protein (SARS-CoV-2). Put plainly: EMSA.
Data set [2] has as its system Nsp3 NAB (SARS-CoV-2). Nature of the data set: EMSA.
The test system of data set [3] is Nsp3 Ubl1 (in N complex);N protein (in Ubl1 complex) (SARS-CoV-2;SARS-CoV-2). Put plainly: EMSA. On the technique in general: Mobility shift assays separate free from complexed probe on a gel.
The test system of data set [4] is Nsp3 Y domain (SARS-CoV-2). Nature of the data set: EMSA.
In data set [5] the test system is Nsp3 Ubl1 (SARS-CoV-2 (MN908947.3?)). Nature of the data set: EMSA.
In data set [6] the test system is Nsp3 HSUD (SARS-CoV-2). Put plainly: EMSA.
The test system of data set [7] is Nsp3 ADRP (SARS-CoV-2). Nature of the data set: EMSA.
For data set [8], the target named is SARS-CoV-2 nucleocapsid (N) protein, full length (419 amino acids) (SARS-CoV-2) (UniProt P0DTC9). Nature of the data set: SEC-RALS.
The target in data set [9] is SARS-CoV-2 Nsp3 ubiquitin-like 1 (Ubl1) domain, residues 1-111 (SARS-CoV-2). Put plainly: crystal structure.

Regarding 5' UTR (1-245), the Kd in data set [1] was determined as 0.79 µM; in data set [2], 204 µM; in data set [3], 0.007 µM; in data set [4] it was 0.7 µM; in data set [5], 31 µM; in data set [6] it was 41 µM. Further, in [7], the Kd worked out at 198 µM.

Turning to “His6-Nsp3 Ubl1 domain (residues 1-111) (domain or fragment)”, the stoichiometry N (Ubl1 per N (4:4)) in data set [8] was found to be 1.

In data set [9], “SARS-CoV-2 Nsp3 ubiquitin-like 1 (Ubl1) domain, residues 1-111 (domain or fragment)” registered a stoichiometry N of 2.

The values above are taken from PMC12323374.
